Source: patent publication US20070055049A1

Key:
[1] = target: HLA-A*0201 (human); test: competitive inhibition, purified HLA-A2.1, reference peptide
[2] = target: HLA-A*0201 (human); test: competitive inhibition, purified HLA-A2.1, standard reference peptide
[3] = target: HLA-A*0201 (human); test: competitive inhibition of the radiolabeled peptide, purified HLA, average
[4] = target: HLA-A*0203 (human); test: as above
[5] = target: HLA-A*0201 (human); test: competitive inhibition, purified HLA-A2.1
[6] = target: HLA-A*0201 (human); details: remark: other sources report otherwise
[7] = target: HLA-A3.2 (product of the A*0301 gene) (human)
[8] = target: HLA-A*0201 (human); test: inhibition curve with unlabeled peptide, purified A2.1; details: remark: other sources report otherwise

B1: HBV core 18-27 F6>Y analog peptide (peptide)
peptide: FLPSDYFPSV
modifications: not checked
How did the IC50 [1] turn out when B1 was run?
Its IC50 is 5 nM.

And the IC50 [2]?
The IC50 was 5 nM.

What about the IC50 [3] of the same binder?
The IC50 was 5 nM.

And the IC50 [4]?
The IC50 was 10 nM.

B2: HBV pol 538 peptide (peptide)
peptide: YMDDVVLGA
modifications: not checked
For B2, which IC50 [5] is on record?
The IC50 was 200 nM.

B3: HBc 18-27 peptide, P03146 18-27 (peptide)
peptide: FLPSDFFPSV
modifications: not checked
How did the percent of radiolabeled peptide bound [6] turn out when B3 was run?
Its percent of radiolabeled peptide bound is 95%.

And the IC50 [7]?
Its IC50 is > 30000 nM.

What about the IC50 [8] of the same binder?
Its IC50 is 25 nM.
